{
  "source": "patent US6989364B1",
  "about": "“Methods for treating cardiac hypertrophy by administering IFN-γ” (Genentech, Inc., priority 1998, dated 2006)",
  "key": {"[1]": {"tested_on": "adult rat cardiac myocytes", "assay": "Inhibition of PGF2α-induced spreading response of adult myocytes", "assay_type": "cell-based", "method": "Myocytes were pre-incubated with saline vehicle or IFN-γ (500 U/ml) on day of isolation. A second addition of vehicle or IFN-γ was performed 24h after isolation, along with the addition of either vehicle or PGF2α (10^−7 M). After an additional 72 hr incubation, cells were fixed in glutaraldehyde, stained with eosin Y and viewed by fluorescence microscopy. A, B, C Cardiac myocytes after 4 days in culture: control, PGF2α, and PGF2α+IFN-γ, respectively. D, E, F Histographs showing maximum breadth of rod shaped cardiac myocytes versus percent frequency of breadth occurrence. The maximum breadth of rod-shaped cells was determined by fluorescence microscopy and imaging software. At least 200 rod shaped cells from a single experiment were examined per group.\nMyocytes were pre-incubated with saline vehicle or IFN-γ on day of isolation. A second amount of IFN-γ was added 24 hr after isolation, along with the addition of either vehicle or PGF2α (10^−7 M). After an additional 72 hr incubation, cells were fixed in glutaraldehyde, stained with eosin Y and viewed under fluorescence. Quantitation of myocyte morphology: A control, B PGF2α, C PGF2α+IFN-γ (25 U/ml), D PGF2α+IFN-γ (100 U/ml), E PGF2α+IFN-γ (500 U/ml). Histographs showing maximum breadth of rod shaped cardiac myocytes versus percent frequency of breadth occurrence. The maximum breadth of rod-shaped cells was determined by fluorescence microscopy and imaging software. At least 200 rod shaped cells from a single experiment were examined per group.\nIn this assay, ventricular myocytes are isolated from a single (male Sprague-Dawley) rat, essentially following a modification of the procedure described in detail by Piper et al., “Adult ventricular rat heart muscle cells.” In: Cell Culture Techniques in Heart and Vessel Research, H. M. Piper, ed., Berlin: Spinger-Verlag, 1990, pp. 36–60. This procedure permits the isolation of adult ventricular myocytes and the long-term culture of these cells in the rod-shaped phenotype. […] Piper et al., supra; Lai et al., Am J. Physiol. 1996; 271 (Heart Circ. Phvsiol. 40):H2197–H2208. The inhibition of myocyte spreading induced by PGF2α, or PGF2α analogs, (e.g. fluprostenol) and phenylephrine by various potential inhibitors of cardiac hypertrophy is then tested. A detailed protocol is described in the examples that follow.\nAdult myocyte cultures The procedure used for the isolation of ventricular myocytes from adult rats was a modification of a procedure described by Piper et al., supra, and is detailed in Lai et al., supra. For each myocyte preparation, one male Sprague-Dawley rat weighing about 250 g was anesthetized with pentobarbital sodium, and the heart was removed. Extraneous tissue was trimmed from the heart, and it was mounted onto a Langendorff system that was temperature controlled at 37° C. The heart was perfused with about 40 ml of Krebs buffer (110 mM NaCl, 2.6 mM KCl, 1.2 mM KH2PO4, 1.2 mM MgSO4.7H2O, 25 mM NaHCO3 and 11 mM glucose). A solution containing 30 mg of collagenase and 12.5 μl of 100 mM CaCl2 in 50 ml of Krebs buffer was then recirculated through the heart for 30 minutes. The heart was removed from the Langendorff apparatus, and the atria and connective tissues were removed. The ventricles were cut into 2 mm cubes with dissecting scissors, and further digested in a fresh collagenase solution (30 mg collagenase and 400 mg BSA dissolved in Krebs buffer with 12.5 μl of 100 mM CaCl2) for five minutes at 37° C. During the digestion, the tissue suspension was gently band shaken one time per minute. After the digestion, the supernatant was removed and saved, and the remaining tissue was further digested in fresh collagenase solution for an additional five minutes."}, "[2]": {"tested_on": "rats with pressure overload", "assay": "Pressure overload (abdominal aortic banding) cardiac hypertrophy: body and organ weights", "assay_type": "in vivo, rat", "method": "For in vivo testing it is common to induce pressure-overload cardiac hypertrophy by constriction of the abdominal aorta of test animals. In a typical protocol rats (e.g. male Wistar or Sprague-Dawley) are treated under anesthesia, and the abdominal aorta of each rat is narrowed down just below the diaphragm. Beznak M., Can. J. Biochem. Physiol. 33, 985–94 (1955). The aorta is exposed through a surgical incision, and a blunted needle is placed next to the vessel. The aorta is constricted with a ligature of wool thread around the needle, which is immediately removed and which reduces the lumen of the aorta to the diameter of the needle. This approach is described, for example, in Rossi et al., Am. Heart J. 124, 700–709 (1992) and O'Rourke and Reibel, P.S.E.M.B. 200, 95–100 (1992). A detailed description of the protocol used by the present inventors is disclosed in the examples hereinbelow.\nAnimal model of pressure overload The induction of pressure overload by partial ligation of the abdominal aorta in rats was as described previously. Kimura et al., Am. J. Physiol. 1989:256 (Heart Circ. Physiol. 25):H1006–H1-11; Batra et al., J. Cardiovasc. Pharmacol. 17(suppl. 2), S151–S153 (1991). In brief, rats were anesthesized with ketamine/xylazine as described above. A 3 cm midline incision was made in the abdominal wall. The abdominal aorta between the diaphragm and the renal artery was exposed and looped with 5–0 silk suture. The suture was tightened around a gauge 23 needle, and then the needle was withdrawn. Sham animals received the surgery without tightening the suture.\nExperimental protocol in rats with pressure overload The rats with aortic banding randomly received subcutaneous injection of IFN-γ at 0.08 mg/k twice a day for one day before surgery and for 14 days after surgery. Sham animals were not treated. Thirteen days after treatment, a catheter was implanted into the right carotid artery under anesthesia as indicated above. One day after implantation, arterial pressure and HR were measured in conscious rats. The heart and other organs including the liver, kidney, and spleen were removed, weighed, and fixed in 10% buffered formalin for pathological studies. The left ventricle was quickly dissected and frozen with liquid nitrogen in some animals and stored at −80° C. for assessment of gene expression.\nStatistical analyisis Results are expressed as mean±SEM. One way analysis of variance (ANOVA) was performed to assess differences in parameters between groups. Significant differences were then subjected to post hoc analysis using Newman-Keuls method; P<0.05 was considered significant."}, "[3]": {"details": "pressure overload, IFN-γ 0.08 mg/kg s.c. twice a day, 1 day before and 14 days after surgery, mean ± SEM"}},
  "data": [
    {"substance": "IFN-γ: recombinant mouse IFN-γ (Genentech, Inc., South San Francisco, Calif., or Genzyme, Cambridge, Mass.)", "values": [
      {"measurement": "Dose dependence of the inhibitory effect on PGF2α-induced myocyte spreading", "setting": "[1]; IFN-γ 25, 100, 500 U/ml, PGF2α 10^−7 M", "result": "dose dependent"},
      {"measurement": "Inhibition of PGF2α-induced myocyte spreading (maximum cell breadth of rod shaped cells)", "setting": "[1]; IFN-γ 500 U/ml, PGF2α 10^−7 M, 72 hr, P<0.001 vs PGF2α", "result": "significantly inhibited their response to PGF2α"},
      {"measurement": "Effect of the substance alone on morphology of the cells", "setting": "[1]; IFN-γ alone, 500 U/ml, no PGF2α", "result": "had no observable effect on the morphology of the cells"},
      {"measurement": "Effect on cardiac hypertrophy induced by pressure overload (heart, atrial, ventricular, left ventricular weights and ratios to BW)", "setting": "[2]; aortic banding, IFN-γ vs vehicle, Table 2, FIGS. 7 and 8", "result": "significantly attenuated cardiac hypertrophy"},
      {"measurement": "BWO, basal levels of body weight", "setting": "[2]; pressure overload rats, before treatment, mean ± SEM", "result": "279.0 ± 1.3", "unit": "g"},
      {"measurement": "AW, atrial weight", "setting": "[2]; [3]", "result": ".046 ± .003 g"},
      {"measurement": "AW/BW, atrial weight to body weight", "setting": "[2]; [3]", "result": ".129 ± .007 g/kg"},
      {"measurement": "BW, body weight post treatment", "setting": "[2]; [3]", "result": "355.5 ± 5.2", "unit": "g"},
      {"measurement": "KW, kidney weight", "setting": "[2]; [3]", "result": "1.349 ± .071 g"},
      {"measurement": "KWBW", "setting": "[2]; [3]", "result": "3.776 ± .071 g/kg"},
      {"measurement": "LW, liver weight", "setting": "[2]; [3]", "result": "13.96 ± .47 g"},
      {"measurement": "LW/BW, liver weight to body weight", "setting": "[2]; [3]", "result": "38.94 ± .92 g/kg"},
      {"measurement": "SW, spleen weight", "setting": "[2]; [3]", "result": "1.170 ± .053 g"},
      {"measurement": "SW/BW, spleen weight to body weight", "setting": "[2]; [3]", "result": "3.261 ± .121 g/kg"},
      {"measurement": "ΔBW, BW-BWO", "setting": "[2]; [3]", "result": "76.5 ± 4.7", "unit": "g"}
    ]}
  ]
}
